Source: doi:10.1101/2023.01.27.525886 (bioRxiv, 2023)

T1: Vtc3-TAPm (S. cerevisiae, UniProt Q02725 1-835)
T1 sequence: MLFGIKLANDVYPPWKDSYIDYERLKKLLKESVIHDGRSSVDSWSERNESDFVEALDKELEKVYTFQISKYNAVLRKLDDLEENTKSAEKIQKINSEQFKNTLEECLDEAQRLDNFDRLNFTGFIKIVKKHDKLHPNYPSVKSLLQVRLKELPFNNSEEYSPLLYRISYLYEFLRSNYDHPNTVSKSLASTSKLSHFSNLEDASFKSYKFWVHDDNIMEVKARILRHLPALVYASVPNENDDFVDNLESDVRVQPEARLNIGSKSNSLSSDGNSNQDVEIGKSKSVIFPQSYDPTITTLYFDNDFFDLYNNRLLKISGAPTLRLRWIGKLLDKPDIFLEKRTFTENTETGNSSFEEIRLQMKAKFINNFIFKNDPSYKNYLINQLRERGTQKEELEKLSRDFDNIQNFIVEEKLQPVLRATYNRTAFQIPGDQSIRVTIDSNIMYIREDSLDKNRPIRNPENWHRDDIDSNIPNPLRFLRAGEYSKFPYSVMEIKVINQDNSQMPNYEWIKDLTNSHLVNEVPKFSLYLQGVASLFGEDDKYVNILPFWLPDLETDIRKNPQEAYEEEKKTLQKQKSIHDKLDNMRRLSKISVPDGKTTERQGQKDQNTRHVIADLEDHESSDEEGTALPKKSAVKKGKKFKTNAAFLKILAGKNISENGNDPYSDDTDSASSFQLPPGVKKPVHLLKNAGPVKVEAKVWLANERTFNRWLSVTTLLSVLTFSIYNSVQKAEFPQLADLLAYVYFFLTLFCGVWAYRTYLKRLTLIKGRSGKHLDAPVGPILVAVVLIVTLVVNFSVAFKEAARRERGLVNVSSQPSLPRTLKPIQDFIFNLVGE

B1: Vtc4 (natural protein)
chain: MKFGEHLSKSLIRQYSYYYISYDDLKTELEDNLSKNNGQWTQELETDFLESLEIELDKVYTFCKVKHSEVFRRVKEVQEQVQHTVRLLDSNNPPTQLDFEILEEELSDIIADVHDLAKFSRLNYTGFQKIIKKHDKKTGFILKPVFQVRLDSKPFFKENYDELVVKISQLYDIARTSGRPIKGDSSAGGKQQNFVRQTTKYWVHPDNITELKLIILKHLPVLVFNTNKEFEREDSAITSIYFDNENLDLYYGRLRKDEGAEAHRLRWYGGMSTDTIFVERKTHREDWTGEKSVKARFALKERHVNDFLKGKYTVDQVFAKMRKEGKKPMNEIENLEALASEIQYVMLKKKLRPVVRSFYNRTAFQLPGDARVRISLDTELTMVREDNFDGVDRTHKNWRRTDIGVDWPFKQLDDKDICRFPYAVLEVKLQTQLGQEPPEWVRELVGSHLVEPVPKFSKFIHGVATLLNDKVDSIPFWLPQMDVDIRKPPLPTNIEITRPGRSDNEDNDFDEDDEDDAALVAAMTNAPGNSLDIEESVGYGATSAPTSNTNHVVESANAAYYQRKIRNAENPISKKYYEIVAFFDHYFNGDQISKIPKGTTFDTQIRAPPGKTICVPVRVEPKVYFATERTYLSWLSISILLGGVSTTLLTYGSPTAMIGSIGFFITSLAVLIRTVMVYAKRVVNIRLKRAVDYEDKIGPGMVSVFLILSILFSFFCNLVAK

Assays:
Vtc3-TAPm [1] = biological target: T1, Vtc3-TAPm; experiment: affinity co-purification of the endogenous complex
cryo-EM structure = biological target: the molecule itself; experiment: cryo-EM structure
Vtc4 = biological target: B1; experiment: cryo-EM structure
Vtc3-TAPm [2] = biological target: T1, Vtc3-TAPm; experiment: cryo-EM structure

Row | Binder | binding result (Vtc3-TAPm [1]) | binding result (cryo-EM structure) | stoichiometry N (Vtc4) [Vtc1 per Vtc4] | stoichiometry N (Vtc3-TAPm [2]) [Vtc4 per Vtc3]
1 | Vtc1 (natural protein) MSSAPLLQRTPGKKIALPTRVEPKVFFANERTFLSWLNFTVMLGGLGVGLLNFGDKIGRVSAGLFTFVAMGTMIYALVTYHWRAAAIRRRGSGPYDDRLGPTLLCFFLLVAVIINFILRLKYNDANTKL | binds | binds | 3 | 
2 | B1 |  |  |  | 1
